Test results as given in US20220042018, “APTAMERS AND THE USE THEREOF IN THE TREATMENT OF CANCER” (FUNDACIÓn PARA LA INVESTIGACIÓn BIOMÉDICA …, published 2022).

Legend:
MNK1a (MKNK1 isoform a) [1] = target: T1, MNK1a (MKNK1 isoform a) (UniProt Q9BUB5-2 Q9BUB5-2:1-424); assay: recognised both isoforms in a similar manner; data not shown; conditions: tags: GST fusion; label: biotin; G4 predicted
MNK1b (MKNK1 isoform b) [2] = target: T2, MNK1b (MKNK1 isoform b) (UniProt Q9BUB5-3 Q9BUB5-3:1-347); assay: as above; conditions: tags: GST fusion; label: biotin; G4 predicted
MNK1a (MKNK1 isoform a) [3] = target: T1, MNK1a (MKNK1 isoform a); assay: ELONA; BSA-free aptamer buffer, 37 C; also detected in apta-western; conditions: tags: GST fusion; label: biotin; G4 (parallel, five-tiered from 3- and 2-tier quadruplexes)
Method: (§1) To determine the binding of the aptamers to MNK1a or MNK1b, 200 ng of protein/well diluted in a coating solution (KPL, USA) in a final volume of 100 μL/well were added to a Maxisorp Nunc 96-well ELISA plate (ThermoFisher Scientific, USA). The plate was incubated overnight at 4° C. under stirring. Aptamers were then added at the corresponding concentration according to the assay, in a final volume of 100 μL/well of BSA-free aptamer buffer for 1 hour at 37° C. under stirring. All the aptamers used were labeled with biotin and had been previously denatured at 90° C. for 10 minutes and then kept at 4° C. for 10 minutes in the BSA-free aptamer buffer. To detect the binding of the aptamer to the protein, 100 μL/well of streptavidin-peroxidase (GE Healthcare, United Kingdom) diluted 1/1000 in the aptamer buffer at 37° C. for 1 hour under stirring were added. To develop the plate, 100 μL/well of ABTS solution (Roche, Switzerland) were added, and it was incubated in darkness at room temperature, with measurements being taken every 10 minutes at a wavelength of 405 nm in an Infinite F200 spectrophotometer (TECAN, Switzerland).
(§2) To analyze the affinity of the new aptamer apMNKQ2, ELONA assays were carried out with the four MNK1 constructs.

MNK1b (MKNK1 isoform b) [4] = target: T2, MNK1b (MKNK1 isoform b); assay: ELONA; BSA-free aptamer buffer, 37 C; four-fold higher affinity than MNK1a; preferentially recognised in native apta-western; conditions: tags: GST fusion; label: biotin; G4 (parallel, five-tiered from 3- and 2-tier quadruplexes)
Method: as §1, §2

T1 sequence (Q9BUB5 other isoform, or with tags, fused parts or gaps): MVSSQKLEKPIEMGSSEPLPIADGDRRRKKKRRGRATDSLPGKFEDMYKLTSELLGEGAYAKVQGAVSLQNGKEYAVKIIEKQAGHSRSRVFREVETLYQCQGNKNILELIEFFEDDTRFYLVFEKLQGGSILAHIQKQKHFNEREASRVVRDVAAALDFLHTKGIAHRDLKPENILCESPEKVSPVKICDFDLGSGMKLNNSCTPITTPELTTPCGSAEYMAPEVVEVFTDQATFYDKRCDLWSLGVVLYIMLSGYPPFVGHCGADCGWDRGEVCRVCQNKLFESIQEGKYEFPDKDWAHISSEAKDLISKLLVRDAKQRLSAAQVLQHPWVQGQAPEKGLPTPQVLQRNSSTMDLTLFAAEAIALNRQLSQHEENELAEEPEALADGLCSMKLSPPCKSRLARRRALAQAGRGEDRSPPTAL
T2 sequence (Q9BUB5 other isoform, or with tags, fused parts or gaps): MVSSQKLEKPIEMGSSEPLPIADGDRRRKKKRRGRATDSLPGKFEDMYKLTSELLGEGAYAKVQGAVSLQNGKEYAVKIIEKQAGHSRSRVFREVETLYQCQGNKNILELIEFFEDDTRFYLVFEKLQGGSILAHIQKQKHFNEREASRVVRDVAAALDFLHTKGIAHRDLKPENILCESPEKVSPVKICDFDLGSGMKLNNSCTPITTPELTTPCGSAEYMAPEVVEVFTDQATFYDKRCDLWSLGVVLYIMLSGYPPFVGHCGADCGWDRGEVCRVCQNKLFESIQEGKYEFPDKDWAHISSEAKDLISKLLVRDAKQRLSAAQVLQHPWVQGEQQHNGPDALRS

TTTTTGGGGTGGGCGGGCGGGGGTGGGGGTGGTATGGCGCGTTGGCCC (structured_DNA) [apMNK2FT]
binding result (MNK1a (MKNK1 isoform a) [1]): binds | binding result (MNK1b (MKNK1 isoform b) [2]): binds

TGGGGTGGGCGGGCGGGGGTGGGGGTGGT (structured_DNA) [apMNKQ2]
Kd (MNK1a (MKNK1 isoform a) [3]): 66.1 nM | Kd (MNK1b (MKNK1 isoform b) [4]): 15.5 nM
